84 variants from the RNAGym collection of RNA variant scans (doi:10.1093/molbev/msab373) can be followed below.

The labels stand for the following.
B1: Azoarcus group I ribozyme (parent)
chain: GUGCCUUGCGCCGGGAAACCACGCAAGGGAUGGUGUCAAAUUCGGCGAAACCUAAGCGCCCGCCCGGGCGUAUGGCAACGCCGAGCCAAGCUUCGGCGCCUGCGCCGAUGAAGGUGUAGAGACUAGACGGCACCCACCUAAGGCAAACGCUAUGGUGAAGGCAUAGUCCAGGGAGUGGCGAAAGUCACACAAACCGG

The variants in this series derive from B1. Description: reverse-splicing fitness (ratio to wild type); higher = more active; in vitro selection; Mg2+ level not given. A digest of the protocol:
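An in vitro group I ribozyme library with randomized positions was T7-transcribed and gel-purified. In triplicate, 10 pmol RNA in EPPS pH 7.5 was reacted with 50 pmoles of a 30-nt RNA substrate for 1 h at 37 °C across several added MgCl2 levels (1–48 mM), then stopped with EDTA. Products were reverse transcribed from a substrate-complementary primer, PCR-amplified and sequenced (HiSeq 4000). Fitness is a variant's read proportion after selection over that before, normalised to wild type.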
As to C82A A111C A120C C169A U176C, the reverse-splicing fitness was found to be 0.0179.
As for C82A A111C A120G A145G C150U C169G U176A, the figure is 0.0123; as for C82A A111C A120G A145G C150U C169G U176C, 0.0182; as for C82A A111C A120G A145G C150U C169A U176C, 0.0149.
The same measure for C82A A111C A120G A145G C150U C169A U176G: 0.00613.
As for C82A A111C A120G A145G C150U C169A U176A, the figure is 0.016.
For the variant C82A A111C A120C C150G C169U U176C, the reverse-splicing fitness came to 0.0102.
Turning to C82A A111C A120C C150G C169U U176G, the reverse-splicing fitness is 0.00771.
As for C82A A111C A120C C150G C169U U176A, the figure is 0.00611; as for C82A A111C A120C A145U C150A U176G, 0.00638; as for C82A A111C A120C A145U C150A U176A, 0.0112.
As for C82A A111C A120C A145U C150A U176C, the figure is 0.0164.
Regarding C82A A111C A120C A145C C150U C169U U176G, the reverse-splicing fitness stood at 0.00738.
The same measure for C82A A111C A120C A145C C150U C169U U176C: 0.0105.
As for C82A A111C A120C A145C C150U C169U U176A, the figure is 0.0135.
The same measure for C82A A111C A120C A145U C150G C169U U176C: 0.0101.
For the variant C82A A111C A120C A145U C150G C169U U176G, the reverse-splicing fitness came out at 0.00684.
As for C82A A111C A120C A145U C150G C169U U176A, the figure is 0.00763; as for C82A A111C A120G A145G C150U C169G, 0.0106; as for C82A A111C A120G A145G C150U C169A, 0.0111.
As for C82A A111C A120C A145C C169U U176A, the reverse-splicing fitness stood at 0.0123.
The same measure for C82A A111C A120C A145C C169U U176G: 0.00595.
As for C82A A111C A120C A145C C169U U176C, the figure is 0.0141.
As for C82A A111C A120G A145G C150G C169U U176A, the figure is 0.0114.
Consider C82A A111C A120G A145G C150G C169U U176G, for which the reverse-splicing fitness was 0.00784.
As for C82A A111C A120G A145G C150G C169U U176C, the reverse-splicing fitness worked out at 0.0123.
As for C82A A111C A120C A145G C150G U176A, the figure is 0.00652; as for C82A A111C A120C A145G C150G U176C, 0.0113.
The same measure for C82A A111C A120C A145G C150G U176G: 0.00679; for C82A A111C A120C A145U C150G U176G: 0.00392.
As for C82A A111C A120C A145U C150G U176A, the reverse-splicing fitness came to 0.00604.
As for C82A A111C A120C A145U C150G U176C, the reverse-splicing fitness is 0.00803.
The same measure for C82A A111C A120C A145U C150U U176C: 0.0187; for C82A A111C A120C A145U C150U U176G: 0.00695; for C82A A111C A120C A145U C150U U176A: 0.0128.
The same measure for C82A A111C A120C C150U U176A: 0.0123; for C82A A111C A120C C150U U176C: 0.0187.
As for C82A A111C A120C C150U U176G, the figure is 0.0074; as for C82A A111C A120C A145G U176G, 0.00691.
On to C82A A111C A120C A145G U176A, for which the reverse-splicing fitness came to 0.0152.
As for C82A A111C A120C A145G U176C, the figure is 0.0274; as for C82A A111C A120C A145U C150U C169A U176A, 0.0153; as for C82A A111C A120C A145U C150U C169A U176C, 0.0129.
The same measure for C82A A111C A120C A145U C150U C169A U176G: 0.00742; for C82A A111C A120C A145G C150U U176C: 0.0208.
Take C82A A111C A120C A145G C150U U176A: the reverse-splicing fitness was 0.0119.
As for C82A A111C A120C A145G C150U U176G, the figure is 0.00852; as for C82A A111C A120C A145U C150G C169A U176A, 0.00956.
The same measure for C82A A111C A120C A145U C150G C169A U176G: 0.00744; for C82A A111C A120C A145U C150G C169A U176C: 0.0125; for C82A A111C A120G A145C C169A U176G: 0.0044.
The same measure for C82A A111C A120G A145C C169A U176A: 0.00969; for C82A A111C A120G A145C C169A U176C: 0.00724; for C82A A111C A120C A145C C150U C169G U176C: 0.0178.
With C82A A111C A120C A145C C150U C169G U176A, the reverse-splicing fitness is 0.0269.
As for C82A A111C A120C A145C C150U C169G U176G, the figure is 0.00659; as for C82A A111C A120G A145G C150G C169G U176C, 0.0118; as for C82A A111C A120G A145G C150G C169G U176A, 0.00968.
Turning to C82A A111C A120G A145G C150G C169G U176G, the reverse-splicing fitness amounted to 0.00603.
Consider C82A A111C A120C A145C U176G, for which the reverse-splicing fitness is 0.00663.
As for C82A A111C A120C A145C U176A, the figure is 0.0123; as for C82A A111C A120C A145C U176C, 0.0149; as for C82A A111C A120G A145G C150A C169U U176G, 0.00632.
The same measure for C82A A111C A120G A145G C150A C169U U176A: 0.0154; for C82A A111C A120G A145G C150A C169U U176C: 0.0139; for C82A A111C A120C C150A U176G: 0.00759.
The same measure for C82A A111C A120C C150A U176A: 0.0118; for C82A A111C A120C C150A U176C: 0.0178; for C82A A111C A120C A145U C150A C169G U176A: 0.0154.
Turning to C82A A111C A120C A145U C150A C169G U176C, the reverse-splicing fitness is 0.0188.
As for C82A A111C A120C A145U C150A C169G U176G, the figure is 0.00745.
Turning to C82A A111C A120C C150U C169A U176A, the reverse-splicing fitness came out at 0.0146.
Regarding C82A A111C A120C C150U C169A U176G, the reverse-splicing fitness was 0.00849.
The same measure for C82A A111C A120C C150U C169A U176C: 0.0126; for C82A A111C A120G A145C C169A: 0.00659; for C82A A111C A120G A145C C169G: 0.00901.
As for C82A A111C A120G A145C C169U, the figure is 0.00846; as for C82A A111C A120C C150U C169U U176G, 0.0075; as for C82A A111C A120C C150U C169U U176C, 0.0139.
With C82A A111C A120C C150U C169U U176A, the reverse-splicing fitness came out at 0.0177.
The same measure for C82A A111C A120G A145G C150A U176C: 0.0185; for C82A A111C A120G A145G C150A U176G: 0.00772.
The same measure for C82A A111C A120G A145G C150A U176A: 0.00969; for C82A A111C A120G A145C C150G C169U U176A: 0.0089.
